The text below walks through data of patent US20130089868A1.

The test has as its target MLS-NR2B (mitochondrial targeting signal sequence, myc-epitope, GST and NR2B residues 1271-1311) [GST: P08515]. Nature of the test: percentage of green fluorescent HEK-293 cells with GFP clustering after Ca^2+ influx (FIG. 5).

Bounds are passed on as bounds.

In the case of “GFP-T286D-α-CaMKII (from UniProt P11275 1-478) (enzyme)”, the fold increase of the cell count against wild-type GFP-α-CaMKII was greater than 2 fold.
